Results from patent US20260102487A1 (Amgen, published 2026).

B1: BsAb-2 (IL2RB_F09G**IL2RG_F16B) (bispecific antibody, human IgG4, V domains shown)
V domain 1: QVQLQESGPGLVKSSETLSLTCTVSGGSISSSDWWSWVRQPPGKGLEWIGEIDHSGSTNYNPSLMSRVTISVDKSKNQFSLKLSSVTAADTAVYFCARGSWELTDAFDIRGQGTLVTVSS
V domain 2: QVQLVESGGGLVKPGGSLRLSCAASGFTFSDYYMSWIRQAPGKGLEWVSYISSSGSTIYYADSVKGRFTISRDNAKNSLYLQMNSLRAEDTAVYYCARGDAVSITGDYRGQGTLVTVSS
notes: Heavy chain-only bispecific on silenced, stabilised human IgG4 Fc, knobs-into-holes, no light chains; not shown: C-terminal His-tag on the knob chain
B2: BsAb-6 (IL2RB_F18E**IL2RG_F16A) (bispecific antibody, human IgG4, V domains shown)
V domain 1: QVQLVESGGGVVQPGRSLRLSCAASGFTFSSYGMHWVRQAPGKEREWVAVISYDGSNKYYTDSVKGRFTISRDNSKNTLYLEMNSLRAEDTAVYYCARDLDYDVLTGDPVGGFDIWGQGTLVTVSS
V domain 2: QVQLVESGGGLVKPGGSLRLSCAASGFTFSDYYMSWIRQAPGKGLEWVSSISSSGDTIYYADSVQGRFTLSRDNAENSLFLQMNSLRAEDTAVYYCARGDAVSITGDYRGQGTLVTVSS
notes: as for B1
B3: BsAb-4 (IL2RB_F09G**IL2RG_F18A) (bispecific antibody, human IgG4, V domains shown)
V domain 1: QVQLQESGPGLVKSSETLSLTCTVSGGSISSSDWWSWVRQPPGKGLEWIGEIDHSGSTNYNPSLMSRVTISVDKSKNQFSLKLSSVTAADTAVYFCARGSWELTDAFDIRGQGTLVTVSS
V domain 2: QVQLVESGGDLVKPGGSLRLSCAASGFTFSDYYMSWLRQAPGKELEWVSHISSSGTTTYYADSVEGRFTITRDNAKNSLYLQMNSLRAEDTAVYYCARGAAVAPGFDSRGQGTLVTVSS
notes: as for B1
B4: BsAb-5 (IL2RB_F09K**IL2RG_F16B) (bispecific antibody, human IgG4, V domains shown)
V domain 1: QVQLQESSPGLVKPSETLSLTCTVSGGSISSSNWWSWVRQPPGKGLEWIGEISHSGSTNYNPSLKSRVTISVDKSKNQFSLRLSSVTAADTAVYFCGRGSWELTDAFDIRGQGTLVTVSS
V domain 2: QVQLVESGGGLVKPGGSLRLSCAASGFTFSDYYMSWIRQAPGKGLEWVSYISSSGSTIYYADSVKGRFTISRDNAKNSLYLQMNSLRAEDTAVYYCARGDAVSITGDYRGQGTLVTVSS
notes: as for B1
B5: BsAb-1 (IL2RB_F09C**IL2RG_F16A) (bispecific antibody, human IgG4, V domains shown)
V domain 1: QVQLQESGPGLVKPSGTLSLTCAVSGGSISSSDWWSWVRQPPGKGLEWIGEIDHSGSTNYNPSLMSRVTISVDKSKNQFSLKLSSVTAADTAVYFCGRGSWELSDAFDIRGQGTLVTVSS
V domain 2: QVQLVESGGGLVKPGGSLRLSCAASGFTFSDYYMSWIRQAPGKGLEWVSSISSSGDTIYYADSVQGRFTLSRDNAENSLFLQMNSLRAEDTAVYYCARGDAVSITGDYRGQGTLVTVSS
notes: as for B1
B6: BsAb-3 (IL2RB_F09G**IL2RG_F16C) (bispecific antibody, human IgG4, V domains shown)
V domain 1: QVQLQESGPGLVKSSETLSLTCTVSGGSISSSDWWSWVRQPPGKGLEWIGEIDHSGSTNYNPSLMSRVTISVDKSKNQFSLKLSSVTAADTAVYFCARGSWELTDAFDIRGQGTLVTVSS
V domain 2: QVQLVESGGGLVKPGGSLRLSCAASGFTFNDYYMSWIRQAPGKGLEWVSHISSSGSTIYYADSVKGRFTVSRDNANNSLYLQMHSLRAEDTAVYYCARGDAVSITGDYRGQGTLVTVSS
notes: as for B1

Key:
IL-4R (Sino Biological) = target: T1, IL-4R (Sino Biological) (UniProt P24394 26-232); assay: Octet (BLI) off-rate, antibody captured on AHC sensors
T1 construct: also called IL-4Ra
T1 sequence (looked up): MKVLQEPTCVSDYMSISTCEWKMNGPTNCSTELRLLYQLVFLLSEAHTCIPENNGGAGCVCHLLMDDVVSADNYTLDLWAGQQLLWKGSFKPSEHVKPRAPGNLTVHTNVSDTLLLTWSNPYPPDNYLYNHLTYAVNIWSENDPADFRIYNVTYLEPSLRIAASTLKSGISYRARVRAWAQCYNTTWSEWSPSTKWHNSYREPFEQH
Experimental: (§1) All off-rate measurements were performed on an Octet Qk384 instrument (ForteBio), in 96-well microplates at 25° C. using anti-human IgG Fc capture (AHC, 18-5005) sensors with a shake speed of 1000 rpm. For off-rate determination, the antibodies/antibody fragments were loaded on the AHC sensors at 5 μg/mL. Following a short baseline in kinetics buffer (0.02% Tween20, 0.1% BSA, 0.05% sodium azide, 1X PBS). Offrate measurements were done for the following: human IL-2Rβ (AcroBiosystems), human IL-2Ry (Sino Biological), cynomolgus IL-2RP (Sino Biological), cynomolgus IL-2Rγ (expressed and purified in house using ExpiCHO expression system followed by Ni-NTA His-tag purification), mouse IL-2Rγ (Sino Biological), mouse IL-2Rβ (Sino Biological), human IL-2Rα (Sino Biological), IL-4R (Sino Biological), IL-7R (Sino Biological), IL-9R (R&D Systems) and IL-21R (Sino Biological). The following antibodies were used as positive controls to verify target binding and reagent quality: anti-human IL-9R (R&D Systems), anti-human IL-21R (R&D Systems), anti-human IL-7R (R&D Systems) and anti-human IL-4Ra (R&D Systems). The loaded sensors were then submerged in wells containing antigen at 100 nM concentration for association step. Dissociation was monitored in kinetics buffer. The capture surfaces were regenerated for 60 s. ForteBio data analysis software was used to fit the data to a 1:1 binding model to extract an association rate and dissociation rate.

IL-7R (Sino Biological) = target: T2, IL-7R (Sino Biological) (UniProt P16871 21-239); assay: as above
T2 sequence (looked up): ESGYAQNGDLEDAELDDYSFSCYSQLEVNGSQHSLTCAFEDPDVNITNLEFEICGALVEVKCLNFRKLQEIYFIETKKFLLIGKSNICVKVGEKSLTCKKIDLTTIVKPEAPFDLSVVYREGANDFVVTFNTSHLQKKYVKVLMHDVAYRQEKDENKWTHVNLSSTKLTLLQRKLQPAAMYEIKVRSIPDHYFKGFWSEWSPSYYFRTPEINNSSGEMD
Experimental: as §1

IL-9R (R&D Systems) = target: T3, IL-9R (R&D Systems) (UniProt Q01113 41-270, limits assumed); assay: as above
T3 sequence (looked up): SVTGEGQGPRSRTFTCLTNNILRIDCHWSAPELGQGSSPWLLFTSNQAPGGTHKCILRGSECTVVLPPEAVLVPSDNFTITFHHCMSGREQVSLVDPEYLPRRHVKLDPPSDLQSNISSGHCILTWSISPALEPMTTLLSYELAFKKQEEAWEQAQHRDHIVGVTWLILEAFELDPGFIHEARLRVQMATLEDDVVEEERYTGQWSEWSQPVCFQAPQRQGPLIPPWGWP
Experimental: as §1

[1] = target: T4, human IL-2Rβγ receptor on primary human T-cells and NK-cells (PBMCs) (human, UniProt P14784 27-551; P31785 23-369); assay: flow cytometry cell binding on human CD4+ T-cells (PBMC), gMFI as fold over secondary antibody only
T4 construct: Endogenous receptor on primary cells; also called dimeric IL-2Rβγ receptor complex
T4 sequence 1: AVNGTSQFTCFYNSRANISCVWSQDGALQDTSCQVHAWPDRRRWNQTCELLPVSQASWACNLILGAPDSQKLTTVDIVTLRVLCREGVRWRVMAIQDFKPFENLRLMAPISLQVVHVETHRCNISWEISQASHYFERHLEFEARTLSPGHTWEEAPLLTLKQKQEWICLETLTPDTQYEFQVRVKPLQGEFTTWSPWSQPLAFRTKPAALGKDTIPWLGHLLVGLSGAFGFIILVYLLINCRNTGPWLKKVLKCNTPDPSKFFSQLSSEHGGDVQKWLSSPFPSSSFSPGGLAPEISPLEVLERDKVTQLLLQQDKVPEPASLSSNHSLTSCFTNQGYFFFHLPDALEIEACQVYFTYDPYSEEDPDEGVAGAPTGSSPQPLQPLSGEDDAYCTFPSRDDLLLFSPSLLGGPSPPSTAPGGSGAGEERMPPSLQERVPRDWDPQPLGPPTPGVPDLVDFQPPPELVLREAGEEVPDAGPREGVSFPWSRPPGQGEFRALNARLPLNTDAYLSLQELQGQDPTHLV
T4 sequence 2: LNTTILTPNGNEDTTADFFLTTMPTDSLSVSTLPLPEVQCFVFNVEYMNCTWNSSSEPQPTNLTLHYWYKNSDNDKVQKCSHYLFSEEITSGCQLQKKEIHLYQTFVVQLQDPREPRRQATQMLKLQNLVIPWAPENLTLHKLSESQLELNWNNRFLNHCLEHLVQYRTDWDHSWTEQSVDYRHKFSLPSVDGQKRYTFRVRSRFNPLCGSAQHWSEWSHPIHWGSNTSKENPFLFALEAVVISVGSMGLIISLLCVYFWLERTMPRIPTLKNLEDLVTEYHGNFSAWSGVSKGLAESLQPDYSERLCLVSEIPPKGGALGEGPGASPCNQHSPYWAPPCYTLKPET
Experimental: All washes and dilutions of cells, antibodies, and reagents were performed using flow buffer (1X PBS, 1% BSA, 0.1% NaN3, pH 7.4). Staining was performed in a round-bottom 96-well plate (Corning) seeded at 100,000 cells/well, and all incubations were performed at 4° C. or on ice. […] The cells were washed twice with 200 μL flow buffer. The cells were then incubated for 30 minutes with detection antibody (Goat F(ab′)2 Anti-Human IgG-PE, Southern Biotech) at 0.625 μg/mL in flow buffer. Following 2 more washes, the cells were resuspended in a final volume of 150 μL of flow buffer. The cells were analyzed on a BD FACSCelesta or a Guava easyCyte 8-HT flow cytometer. At least 3000 events were collected, and PE geometric mean fluorescence intensity was plotted as a fold over background (cells incubated with secondary detection antibody only). In some secondary screens involving human or cynomolgus PBMCs, an additional CD4 antibody (BioLegend) and/or CD8 antibody (BioLegend) was included to further characterize cell binding.

Binder	binding result (IL-4R (Sino Biological))	binding result (IL-7R (Sino Biological))	binding result (IL-9R (R&D Systems))	EC50 (read off the curve) [1] [nM]	binding result [1]
B1	no binding (tested: antigen at 100 nM)	no binding (tested: antigen at 100 nM)	no binding (tested: antigen at 100 nM)	~4	–
B2	no binding (tested: antigen at 100 nM)	no binding (tested: antigen at 100 nM)	no binding (tested: antigen at 100 nM)	~7	–
B3	no binding (tested: antigen at 100 nM)	no binding (tested: antigen at 100 nM)	no binding (tested: antigen at 100 nM)	~4	–
B4	no binding (tested: antigen at 100 nM)	no binding (tested: antigen at 100 nM)	no binding (tested: antigen at 100 nM)	–	binds
B5	no binding (tested: antigen at 100 nM)	no binding (tested: antigen at 100 nM)	no binding (tested: antigen at 100 nM)	~7	–
B6	no binding (tested: antigen at 100 nM)	no binding (tested: antigen at 100 nM)	no binding (tested: antigen at 100 nM)	~7	–
